The supplement of paper PMC9112550, “Optimization of the antimicrobial peptide Bac7 by deep mutational scanning” (BMC Biology, 2022)

What follows are sequences tested on Escherichia coli TOP10 (assay: shrunken log2 fold change of peptide-encoding DNA abundance (4.5 h post-induction vs induction); higher = less antimicrobial activity (less host growth inhibition)). Conditions: time post-induction: 4.5 h; library: site-saturation at positions 5, 18, 19, 20.
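Further: peptides expressed intracellularly from a pBAD plasmid library in pooled LB shake-flask culture, induced with 0.3% L-arabinose, DNA abundance read by NGS, three biological replicates, DESeq2 with apeglm shrinkage.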

Sequence | shrunken log2 fold change
RRIRFRPPRLPRPRPRPHMPPRP | -0.0659
RRIRFRPPRLPRPRPRPHNCPRP | -0.3
RRIRFRPPRLPRPRPRPHPAPRP | 0.0971
RRIRFRPPRLPRPRPRPHPKPRP | 0.827
RRIRFRPPRLPRPRPRPHPNPRP | -0.31
RRIRFRPPRLPRPRPRPHPVPRP | -0.141
RRIRFRPPRLPRPRPRPHRQPRP | -0.228
RRIRFRPPRLPRPRPRPHTNPRP | -0.453
RRIRFRPPRLPRPRPRPHTTPRP | -0.155
RRIRFRPPRLPRPRPRPHVMPRP | -0.288
RRIRFRPPRLPRPRPRPHWGPRP | -0.0695
RRIRFRPPRLPRPRPRPHWIPRP | -0.151
RRIRFRPPRLPRPRPRPHWKPRP | -0.162
RRIRFRPPRLPRPRPRPIAEPRP | 0.2
RRIRFRPPRLPRPRPRPIAPPRP | 0.0659
RRIRFRPPRLPRPRPRPICGPRP | 0.0198
RRIRFRPPRLPRPRPRPICMPRP | -0.214
RRIRFRPPRLPRPRPRPIDAPRP | -0.289
RRIRFRPPRLPRPRPRPIEDPRP | -0.461
RRIRFRPPRLPRPRPRPIFMPRP | -0.314
RRIRFRPPRLPRPRPRPIFVPRP | 0.108
RRIRFRPPRLPRPRPRPIGDPRP | -0.033
RRIRFRPPRLPRPRPRPIHFPRP | -0.246
RRIRFRPPRLPRPRPRPIHHPRP | -0.0432
RRIRFRPPRLPRPRPRPIIDPRP | -1.61

Sequence | shrunken log2 fold change
RRIRFRPPRLPRPRPRPIIEPRP | -0.747
RRIRFRPPRLPRPRPRPIKAPRP | -0.128
RRIRFRPPRLPRPRPRPILWPRP | -0.0429
RRIRFRPPRLPRPRPRPINLPRP | -0.291
RRIRFRPPRLPRPRPRPINMPRP | -0.319
RRIRFRPPRLPRPRPRPINVPRP | -0.195
RRIRFRPPRLPRPRPRPIPHPRP | -0.31
RRIRFRPPRLPRPRPRPIQWPRP | 0.0986
RRIRFRPPRLPRPRPRPISKPRP | -0.0939
RRIRFRPPRLPRPRPRPISVPRP | 0.0197
RRIRFRPPRLPRPRPRPIVVPRP | -0.0214
RRIRFRPPRLPRPRPRPIVYPRP | -0.181
RRIRFRPPRLPRPRPRPIWHPRP | -0.0746
RRIRFRPPRLPRPRPRPIWRPRP | 0.248
RRIRFRPPRLPRPRPRPIYGPRP | -0.289
RRIRFRPPRLPRPRPRPIYIPRP | -0.832
RRIRFRPPRLPRPRPRPIYKPRP | -0.836
RRIRFRPPRLPRPRPRPIYTPRP | -0.424
RRIRFRPPRLPRPRPRPKAAPRP | 0.264
RRIRFRPPRLPRPRPRPKEPPRP | -0.135
RRIRFRPPRLPRPRPRPKIPPRP | -0.428
RRIRFRPPRLPRPRPRPKIQPRP | -0.179
RRIRFRPPRLPRPRPRPKIWPRP | 0.106
RRIRFRPPRLPRPRPRPKKAPRP | 0.173
RRIRFRPPRLPRPRPRPKLIPRP | -0.565

Sequence | shrunken log2 fold change
RRIRFRPPRLPRPRPRPKLNPRP | -0.193
RRIRFRPPRLPRPRPRPKNLPRP | -0.225
RRIRFRPPRLPRPRPRPKNTPRP | -0.487
RRIRFRPPRLPRPRPRPKRVPRP | 0.598
RRIRFRPPRLPRPRPRPKTDPRP | -0.0282
RRIRFRPPRLPRPRPRPKTGPRP | 0.072
RRIRFRPPRLPRPRPRPKTHPRP | -0.0208
RRIRFRPPRLPRPRPRPKWQPRP | 0.000886
RRIRFRPPRLPRPRPRPKYLPRP | -0.451
RRIRFRPPRLPRPRPRPLAIPRP | -0.0726
RRIRFRPPRLPRPRPRPLAKPRP | 0.182
RRIRFRPPRLPRPRPRPLCMPRP | -0.888
RRIRFRPPRLPRPRPRPLEMPRP | -0.357
RRIRFRPPRLPRPRPRPLEPPRP | -0.199
RRIRFRPPRLPRPRPRPLEWPRP | 0.0696
RRIRFRPPRLPRPRPRPLFMPRP | -0.36
RRIRFRPPRLPRPRPRPLFYPRP | -0.0429
RRIRFRPPRLPRPRPRPLGQPRP | -0.187
RRIRFRPPRLPRPRPRPLIEPRP | -0.132
RRIRFRPPRLPRPRPRPLIRPRP | -0.382
RRIRFRPPRLPRPRPRPLKLPRP | -0.147
RRIRFRPPRLPRPRPRPLLAPRP | 0.176
RRIRFRPPRLPRPRPRPLLDPRP | -0.0563
RRIRFRPPRLPRPRPRPLPQPRP | 1.15
RRIRFRPPRLPRPRPRPLPVPRP | 0.142

Sequence | shrunken log2 fold change
RRIRFRPPRLPRPRPRPLRIPRP | 0.00235
RRIRFRPPRLPRPRPRPLRLPRP | 0.891
RRIRFRPPRLPRPRPRPLRRPRP | 0.773
RRIRFRPPRLPRPRPRPLSTPRP | -0.47
RRIRFRPPRLPRPRPRPLTLPRP | -0.337
RRIRFRPPRLPRPRPRPLTPPRP | 0.0478
RRIRFRPPRLPRPRPRPLVCPRP | -0.365
RRIRFRPPRLPRPRPRPLVDPRP | 0.0316
RRIRFRPPRLPRPRPRPLVMPRP | -0.335
RRIRFRPPRLPRPRPRPLWPPRP | 0.264
RRIRFRPPRLPRPRPRPLYDPRP | -0.358
RRIRFRPPRLPRPRPRPLYNPRP | -0.644
RRIRFRPPRLPRPRPRPMAEPRP | 0.0579
RRIRFRPPRLPRPRPRPMDIPRP | -0.0635
RRIRFRPPRLPRPRPRPMDQPRP | -0.247
RRIRFRPPRLPRPRPRPMELPRP | 0.112
RRIRFRPPRLPRPRPRPMERPRP | -0.208
RRIRFRPPRLPRPRPRPMHFPRP | -0.136
RRIRFRPPRLPRPRPRPMHHPRP | -0.449
RRIRFRPPRLPRPRPRPMHVPRP | -0.0102
RRIRFRPPRLPRPRPRPMIFPRP | -0.364
RRIRFRPPRLPRPRPRPMILPRP | -0.29
RRIRFRPPRLPRPRPRPMIYPRP | -0.441
RRIRFRPPRLPRPRPRPMMVPRP | -0.112
RRIRFRPPRLPRPRPRPMNEPRP | -0.595

Sequence | shrunken log2 fold change
RRIRFRPPRLPRPRPRPMNIPRP | -0.192
RRIRFRPPRLPRPRPRPMPAPRP | 0.283
RRIRFRPPRLPRPRPRPMPHPRP | -0.0704
RRIRFRPPRLPRPRPRPMSAPRP | -0.105
RRIRFRPPRLPRPRPRPMSEPRP | -0.381
RRIRFRPPRLPRPRPRPMSPPRP | -0.0304
RRIRFRPPRLPRPRPRPMSRPRP | 0.0534
RRIRFRPPRLPRPRPRPMTRPRP | -0.173
RRIRFRPPRLPRPRPRPMYHPRP | -1.01
RRIRFRPPRLPRPRPRPMYIPRP | -1.09
RRIRFRPPRLPRPRPRPMYSPRP | -0.73
RRIRFRPPRLPRPRPRPNCYPRP | -0.435
RRIRFRPPRLPRPRPRPNEMPRP | -0.0729
RRIRFRPPRLPRPRPRPNFFPRP | -0.178
RRIRFRPPRLPRPRPRPNGMPRP | -0.0957
RRIRFRPPRLPRPRPRPNHQPRP | -0.736
RRIRFRPPRLPRPRPRPNHSPRP | -0.832
RRIRFRPPRLPRPRPRPNKYPRP | -0.684
RRIRFRPPRLPRPRPRPNLLPRP | -0.187
RRIRFRPPRLPRPRPRPNNHPRP | -0.571
RRIRFRPPRLPRPRPRPNQGPRP | -0.197
RRIRFRPPRLPRPRPRPNRIPRP | -0.619
RRIRFRPPRLPRPRPRPNRLPRP | -0.121
RRIRFRPPRLPRPRPRPNSGPRP | -0.166
RRIRFRPPRLPRPRPRPNSNPRP | -0.996

Sequence | shrunken log2 fold change
RRIRFRPPRLPRPRPRPNSTPRP | -0.671
RRIRFRPPRLPRPRPRPNTLPRP | -0.239
RRIRFRPPRLPRPRPRPNVAPRP | 0.365
RRIRFRPPRLPRPRPRPNVKPRP | -0.574
RRIRFRPPRLPRPRPRPNVYPRP | -0.558
RRIRFRPPRLPRPRPRPNYDPRP | -0.866
RRIRFRPPRLPRPRPRPPAGPRP | 0.727
RRIRFRPPRLPRPRPRPPDGPRP | 0.209
RRIRFRPPRLPRPRPRPPDWPRP | 0.701
RRIRFRPPRLPRPRPRPPEDPRP | 0.357
RRIRFRPPRLPRPRPRPPFFPRP | 0.243
RRIRFRPPRLPRPRPRPPFLPRP | -0.0645
RRIRFRPPRLPRPRPRPPGKPRP | 0.2
RRIRFRPPRLPRPRPRPPGSPRP | 0.238
RRIRFRPPRLPRPRPRPPGVPRP | 0.168
RRIRFRPPRLPRPRPRPPHCPRP | 0.362
RRIRFRPPRLPRPRPRPPHPPRP | 0.615
RRIRFRPPRLPRPRPRPPHVPRP | 0.203
RRIRFRPPRLPRPRPRPPIFPRP | -0.0711
RRIRFRPPRLPRPRPRPPIMPRP | -0.451
RRIRFRPPRLPRPRPRPPIPPRP | 0.257
RRIRFRPPRLPRPRPRPPKRPRP | 0.467
RRIRFRPPRLPRPRPRPPLHPRP | 0.198
RRIRFRPPRLPRPRPRPPMWPRP | 0.486
RRIRFRPPRLPRPRPRPPNEPRP | 0.0211
